Test [1] concerns LNCaP human prostate cancer cells. Put plainly: Smad phosphorylation in LNCaP prostate cancer cells (Western blot). The following applies: single agent, cultured LNCaP cells. Format: cell-based. As for the experimental part:
The detection of Smad phosphorylation by Western analysis, for example in LNCaP (prostate cancer cells) or EC (vascular endothelial cells) in culture medium can be examined after exposure to varying concentrations of TDFRP or control compounds. BMP-7 serves as a positive control. Cells are lysed in RIPA lysis buffer (50 mM Tris-HCl at pH 8.0, 150 mM NaCl, 1% NP-40, 0.5% sodium deoxycholate, 0.1% SDS) containing 1 mM PMSF, 1 mM sodium orthovanadate, and 10 ug/mL proteinase inhibitor cocktail. Lysates are incubated on ice for 15 minutes, centrifuged, and transferred supernatant to a clean tube. 50 to 100 ug is used for analysis by SDS-PAGE. Resolved proteins are electro transferred onto PVDF membrane. The blot is blocked by incubating in 3% non-fat dry milk prepared in PBS at room temperature for 1 hour with constant slow agitation. The blot is incubated with 1-2 ug/mL of primary antibody (rabbit anti-phospho-Smad 1) prepared in PBS-milk, overnight with agitation at 4 degree C., washed twice with PBS, and incubated with secondary antibody (anti rabbit HRP conjugated IgG, 1:3000 dilution) at room temperature for 2 hours with agitation. After washing in PBS-0.05% Tween 20 for 5 minutes and rinsing, Smad phosphorylation is detected via an HRP reaction according to manufacturer's instructions (FIGS. 2, 3, 18, 2X).
For detection of Smad phosphorylation by Western analysis, LNCaP (prostate cancer cells) or EC (vascular endothelial cells) in culture medium are exposed to varying concentrations of TDFRP or control compounds. BMP-7 served as a positive control. Cells are lysed in RIPA lysis buffer (50 mM Tris-HCl at pH 8.0, 150 mM NaCl, 1% NP-40, 0.5% sodium deoxycholate, 0.1% SDS) containing 1 mM PMSF, 1 mM sodium orthovanadate, and 10 ug/mL proteinase inhibitor cocktail. Lysates are incubated on ice for 15 minutes, centrifuged, and transferred supernatant to a clean tube. 50 to 100 ug is used for analysis by
SDS-PAGE. Resolved proteins are electro transferred onto PVDF membrane. The blot is blocked by incubating in 3% non-fat dry milk prepared in PBS at room temperature for 1 hour with constant slow agitation. The blot is incubated with 1-2 ug/mL of primary antibody (rabbit anti-phospho-Smad 1) prepared in PBS-milk, overnight with agitation at 4 degree C., washed twice with PBS, and incubated with secondary antibody (anti rabbit HRP conjugated IgG, 1:3000 dilution) at room temperature for 2 hours with agitation. After washing in PBS-0.05% Tween 20 for 5 minutes and rinsing, Smad phosphorylation is detected via an HRP reaction according to manufacturer's instructions (FIGS. 3, 27).
BMP signaling molecules co-administered with TDFRP compounds show synergistic or enhanced downstream signaling as detected by Smad phosphorylation. Smad phosphorylation was assessed by Western analysis in LNCaP (prostate cancer cells) or EC (vascular endothelial cells) cells in culture medium exposed to varying concentrations of TDFRP or control compounds. BMP-7 served as a positive control. Cells are lysed in RIPA lysis buffer (50 mM Tris-HCl at pH 8.0, 150 mM NaCl, 1% NP-40, 0.5% sodium deoxycholate, 0.1% SDS) containing 1 mM PMSF, 1 mM sodium orthovanadate, and 10 ug/mL proteinase inhibitor cocktail. Lysates are incubated on ice for 15 minutes, centrifuged, and transferred supernatant to a clean tube. 50 to 100 ug is used for analysis by SDS-PAGE. Resolved proteins are electro transferred onto PVDF membrane. […]
Background: Immunoblotting shows a protein as a band on a membrane.

The subject of the next test is PC-3. Put plainly: Cancer cell proliferation, tritiated thymidine incorporation. The class given is cell-based, human. The following applies: PC-3 cultured in vitro.
Text: (§1) TDFRP Compound Inhibition of LNCaP Cancer Cell Proliferation. BMP-6 and a TDFRP compound (SEQ ID NO:45) inhibited the proliferation of prostate cancer cells (LNCaP and PC-3) cultured in vitro as detected by the incorporation of tritiated thymidine (a measure of cell proliferation.
(§2) Prostate cancer is one of the most common cancers in men. […] Moreover, it has been shown that BMP signals inhibit the growth and the proliferation of human prostate tumor cells by upregulating the cyclin-dependent kinase inhibitor (CDKI) p21 (CIP1/WAF1) and decreasing the activity of Cdk2, leading to hypophosphorylation of Rb proteins. TDFRP compounds have been screened in in vitro prostate and bladder cancer bioassays to assess growth inhibitory activity of the compounds (FIG. 3). ^3H-thymidine incorporation is used as a marker for cell proliferation activity in human prostate and bladder cancer cell lines. Cisplatin inhibits ^3H-thymidine incorporation, indicating a tumor-growth suppressive activity of cisplatin in both human prostate and bladder cancer cells. TDFRP compounds are assayed in these cancer cells for the ability to induce receptor-regulated Smad 1/5 phosphorylation in a dose-dependent manner (FIG.).
as §2, with “(FIGS. 3, 28).” for “(FIG. 3).”, “(FIGS. 3, 28).” for “(FIG.).”
A general note: Dividing cells build labelled thymidine or BrdU into new DNA.

A further test relates to LNCaP. Described as above. Format: cell-based, human. Conditions: LNCaP cultured in vitro.
Text: as §1, §2
as §2, with “(FIGS. 3, 28).” for “(FIG. 3).”, “(FIGS. 3, 28).” for “(FIG.).”

Entries after “also recorded” stand apart in the source; their conditions may differ.

B1: BMP-6: bone morphogenetic protein BMP-6 (Vgr-1) (protein, UniProt P22004 375-513, looked up)
Bone morphogenetic protein 6: SASSRRRQQSRNRSTQSQDVARVSSASDYNSSELKTACRKHELYVSFQDLGWQDWIIAPKGYAANYCDGECSFPLNAHMNATNHAIVQTLVHLMNPEYVPKPCCAPTKLNAISVLYFDDNSNVILKKYRNMVVRACGCH
Regarding B1, the “Smad phosphorylation and activation” value in test [1] was “induced; also recorded: Smad 1, 5, 8 phosphorylation and activation”. The “proliferation (incorporation of tritiated thymidine)” value with PC-3 and with LNCaP was “inhibited” in each case.

The values above are taken from US8911953B2, “TDF-related compounds and analogs thereof, analogs and bioactive fragments” (Thrasos Innovation, Inc., priority 2005, dated 2014).
